Source: patent US20260224754A1, “ORAL FORMULATION TO ENSURE BIOAVAILABILITY OF PEPTIDE, PROTEIN, AND NUCLEIC ACID THERAPEUTICS” (THE TRUSTEES OF COLUMBIA UNIVERSITY IN THE CITY OF NEW YORK, priority 2023, published 2026)

How the values were obtained:
muscles of WT male mice = assay: muscle gene expression in WT mice treated with recombinant LCN2; assay type: in vivo
Description: (§1) Mean±SEM. *, P<0.05, Student's t test.
FIGS. 32A-32B show relative expression levels (fold over vehicle) of MyHCIIa and MyHCIIb in EDL of 12-week-old male Lcn2osb−/− or WT littermates (FIG. 32A) or 8-week-old WT male mice treated with the indicated doses of recombinant Lcn2 or vehicle (n=6/group) for 16 weeks (FIG. 32B). Mean±SEM. *, P<0.05, Student's t test.
FIGS. 34A-34B show relative expression levels (fold over vehicle) of the indicated genes in tibialis anterior of 12-week-old male Lcn2osb−/− or WT littermates (FIG. 34A) or 8-week-old WT male mice treated with 150 ng/g/day recombinant Lcn2 (n=7) or vehicle (n=8) for 16 weeks (FIG. 34B). Mean±SEM. *, P<0.05, Student's t test.
Regarding muscle function, LCN2 is required to maintain lean mass and endurance. […] Endurance measured as exercise distance of 6-month old LCN2−/− and WT littermates individually housed in cages equipped with voluntary running wheels and recorded for 14 days following a 7-day acclimation is shown in FIG. 28B. The increase in energy expenditure of overexpressed LCN2 can be explained in part from the increase in lean body mass, which is correlated to basal metabolic rate. […] Myogenic regulatory factors, namely myf5, mrf4, myoD and myoG. are transcription factors that regulate myogenesis. In the knockout mice, these myogenic factors either decreased or had little change though seems to trend to decrease.
Furthermore, the effect was studied in the specific type of type two muscle fiber. Type IIb is the classical fast twitch, white meat, glycolytic fiber type, whereas type IIa is still considered fast twitch but with oxidative capacity. It is considered in between an in between muscle fiber type between type 1, which are the slow twitch, red meat, oxidative muscle fiber, and classic type IIB. […] Both type II fibers are fast twitch, primarily glycolytic muscle fibers, but the type A ones are characterized by more mitochondria and seem to be more oxidative. […]

C2C12 cells = assay: gene expression and PKA/cAMP in C2C12 cells treated with recombinant LCN2; assay type: cell-based, mouse
Protocol: as §1
FIG. 37 show relative expression levels (fold over vehicle) of AcylcoA, Mcad and Ucp2 in C2C12 cells treated with increasing concentrations of recombinant Lcn2 for 4 h. Mean±SEM. *, P<0.05, Student's t test.
The in vivo results were confirmed in vitro. […] FIG. 40 summarizes how LCN2 regulate lean body mass with an increase in myogenesis and energy expenditure.

B1: LCN2: bone-derived hormone, also known as oncogene 24p3 or neutrophil gelatinase-associated lipocalin (protein, UniProt P80188 21-198, looked up)
Neutrophil …: QDSTSDLIPAPPLSKVPLQQNFQDNQFQGKWYVVGLAGNAILREDKDPQKMYATIYELKEDKSYNVTSVLFRKKKCDYWIRTFVPGCQPGEFTLGNIKSYPGLTSYLVRVVSTNYNQHAMVFFKKVSQNREYFKITLYGRTKELTSELKENFIRFSKSLGLPENHIVFPVPIDQCIDG
myosin heavy chain type IIa versus type IIb (muscles of WT male mice; EDL, WT male mice, 16 weeks): increases the amount of myosin heavy chain type IIa compared to type IIb
expression of myogenic regulatory factors (myf5, mrf4, myoD, myoG) (muscles of WT male mice; male WT mice treated with LCN2): at least a twofold increase in all myogenic regulatory factors
expression of mitochondrial genes (muscles of WT male mice; tibialis anterior, WT mice treated with LCN2): increase in these mitochondrial genes
expression of genes associated with beta-oxidation (C2C12 cells; 4 h): increase in the expression of genes associated with B-oxidation
expression of genes that promote mitochondrial biogenesis (NRF1, Pgc1a) (C2C12 cells; 4 h): increases the expression of genes that promote mitochondrial biogenesis
expression of genes that promote myogenesis (C2C12 cells; 4 h): increases the expression of genes that promote myogenesis
PKA/cAMP activity (C2C12 cells; Western blot and ELISA): induces PKA/cAMP activity
